How the values were obtained:
bovine LHRH receptor [1] = biological target: T1, bovine LHRH receptor (bovine, UniProt P32236 1-328); test: displacement of 125I-deslorelin, bovine nasal MTP region membranes, high affinity site (IC50 I)
T1 construct: whole, on cells; The receptor stood in crude membrane preparations of bovine tissue homogenates, not on intact cells; also called GnRH receptor
T1 sequence (looked up): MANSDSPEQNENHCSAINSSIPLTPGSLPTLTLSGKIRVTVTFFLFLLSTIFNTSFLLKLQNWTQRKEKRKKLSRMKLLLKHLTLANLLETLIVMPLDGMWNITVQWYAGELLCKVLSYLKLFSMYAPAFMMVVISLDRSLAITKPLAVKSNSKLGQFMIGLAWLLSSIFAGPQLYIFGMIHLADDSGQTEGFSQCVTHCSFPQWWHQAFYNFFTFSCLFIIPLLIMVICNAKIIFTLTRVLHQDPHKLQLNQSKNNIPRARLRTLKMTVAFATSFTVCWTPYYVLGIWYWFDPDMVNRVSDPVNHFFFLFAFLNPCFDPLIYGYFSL
Description: (§1) Competition Studies: To determine the amount of unlabelled deslorelin required to displace the radioactivity, competition studies were conducted. Briefly, membranes were incubated with 100,000 cpm of I¹²⁵ deslorelin in the presence or absence of unlabelled deslorelin (0.01-3,000 ng) in a total volume of 200 μl for 4 hr at 4° C. Assays were performed in triplicates. At the end of 4 hr, the incubation tubes were centrifuged at 10,000 g for 20 min at 4° C. to separate the bound fraction. Radioactivity was measured in the pellet using a Perkin-Elmer γ-counter. The same controls as in the kinetic and saturation studies were used. The experiment was repeated three times.

bovine LHRH receptor [2] = biological target: T1, bovine LHRH receptor; test: displacement of 125I-deslorelin, bovine pituitary membranes, low affinity site (IC50 II)
Description: as §1

bovine LHRH receptor [3] = biological target: T1, bovine LHRH receptor; test: displacement of 125I-deslorelin, bovine nasal MTA region membranes, low affinity site (IC50 II)
Description: as §1

bovine LHRH receptor [4] = biological target: T1, bovine LHRH receptor; test: displacement of 125I-deslorelin, bovine nasal ITP region membranes, high affinity site (IC50 I)
Description: as §1

bovine LHRH receptor [5] = biological target: T1, bovine LHRH receptor; test: displacement of 125I-deslorelin, bovine pituitary membranes, high affinity site (IC50 I)
Description: as §1

bovine LHRH receptor [6] = biological target: T1, bovine LHRH receptor; test: displacement of 125I-deslorelin, bovine nasal MTP region membranes, low affinity site (IC50 II)
Description: as §1

bovine LHRH receptor [7] = biological target: T1, bovine LHRH receptor; test: displacement of 125I-deslorelin, bovine nasal MTA region membranes, high affinity site (IC50 I)
Description: as §1

bovine LHRH receptor [8] = biological target: T1, bovine LHRH receptor; test: displacement of 125I-deslorelin, bovine nasal ITP region membranes, low affinity site (IC50 II)
Description: as §1

IC50 (bovine LHRH receptor [1]): 0.112 nM | IC50 (bovine LHRH receptor [2]): 17.9 nM | IC50 (bovine LHRH receptor [3]): 53.2 nM | IC50 (bovine LHRH receptor [4]): 0.102 nM | IC50 (bovine LHRH receptor [5]): 0.031 nM | IC50 (bovine LHRH receptor [6]): 42.1 nM | IC50 (bovine LHRH receptor [7]): 0.136 nM | IC50 (bovine LHRH receptor [8]): 32.9 nM
B1: deslorelin (peptide)
peptide: EHWSYWLRP
modifications: pGlu at position 1; D-Trp at position 6; C-terminal ProNHEt (ethylamide)
notes: Synthetic LHRH analog, gift from Balance Pharmaceuticals; also called unlabelled deslorelin; unlabeled deslorelin
